Source: the supplement of paper PMC10065799, “High-throughput profiling of sequence recognition by tyrosine kinases and SH2 domains using bacterial peptide display” (eLife, 2023)

Each sequence was assayed against FGFR1 (UniProt P11362) (assay: phosphorylation enrichment, bacterial display (enrichment ratio); higher = better substrate or ligand; peptides without Tyr show the background).
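Note: 11-residue human phosphosite peptides and single-mutation variants displayed on the E. coli surface, counted by deep sequencing, each peptide's frequency after selection divided by its frequency in the unselected input library; frequency after pTyr selection over input frequency; kinase dosed for 20-30% of maximal phosphorylation in three min.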

FGFR1, sequence (P11362 whole entry, looked up): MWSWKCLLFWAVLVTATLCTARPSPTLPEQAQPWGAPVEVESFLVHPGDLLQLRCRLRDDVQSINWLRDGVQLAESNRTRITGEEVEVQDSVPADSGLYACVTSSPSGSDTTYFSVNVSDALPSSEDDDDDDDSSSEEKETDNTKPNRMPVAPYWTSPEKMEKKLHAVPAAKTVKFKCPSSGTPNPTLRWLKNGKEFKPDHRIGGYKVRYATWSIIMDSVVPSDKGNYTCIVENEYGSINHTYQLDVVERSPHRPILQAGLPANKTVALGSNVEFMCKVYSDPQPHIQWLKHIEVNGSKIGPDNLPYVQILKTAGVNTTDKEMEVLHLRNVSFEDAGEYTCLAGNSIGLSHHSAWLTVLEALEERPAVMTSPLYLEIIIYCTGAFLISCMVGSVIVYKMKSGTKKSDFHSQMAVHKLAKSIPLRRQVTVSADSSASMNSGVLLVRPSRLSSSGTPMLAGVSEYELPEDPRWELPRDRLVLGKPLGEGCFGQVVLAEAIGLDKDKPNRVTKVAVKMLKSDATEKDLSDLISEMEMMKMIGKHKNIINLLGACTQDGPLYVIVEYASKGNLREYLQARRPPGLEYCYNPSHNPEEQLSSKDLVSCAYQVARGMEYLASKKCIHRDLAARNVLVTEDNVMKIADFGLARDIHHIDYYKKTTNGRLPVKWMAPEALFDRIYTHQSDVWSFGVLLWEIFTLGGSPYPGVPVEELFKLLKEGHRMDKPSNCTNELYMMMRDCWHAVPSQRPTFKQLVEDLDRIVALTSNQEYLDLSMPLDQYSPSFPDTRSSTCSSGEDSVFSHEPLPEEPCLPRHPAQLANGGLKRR

Sequence | phosphorylation enrichment
SGIYQYIIAKF [FOXL2_Y83] | 6.4
CSDPSYVKQME [CDC5L_Y464_Y459C] | 0.488
IIGNGYFFHVF [MYBPC3_Y1135_R1138H_YF] | 0.4
MGGSVYFSFPD [HIKESHI_Y55_YF] | 3.19
NFRRGYHLQVL [CD200R1L_Y138_H135R] | 0.462
CTTIHHNFMCN [TP53_Y234_Y234H_YF] | 0.525
IFETDYFRKGG [INSR_Y1189_YF] | 0.536
WISNRYPDFSS [PRPH2_Y184_L185P] | 0.533
GSRGKCSSGFR [ATM_Y332_Y332C] | 0.403
RVQKRYILDNV [RCN1_Y115_F117L] | 0.326
SETSRYLSDLF [KCNJ3_Y67] | 0.544
YPIDHYLGKEM [G6PD_Y202_R198P] | 0.613
LEQDEYALHSH [HADHB_Y244_R247H] | 0.847
SSQAHYRLSAF [ADAMTS9_Y100] | 0.399
QSSALYEDCYL [ASS1_Y83_R86C] | 0.788
GRPLSYWLTGC [LYZL6_Y140_F139S] | 0.535
INSLKYAYNIS [EIF2B5_Y583] | 0.425

Sequence | phosphorylation enrichment
VHNLDYFKMTT [FGFR3_Y647_K650M_YF] | 7
DLDPNYVVSSR [CKM_Y125_L127V] | 0.539
YTGDIYSNSNL [LZTR1_Y141] | 0.626
DPADRYLIEQC [CDKL5_Y286_T288I] | 0.587
ALTRSYIREKV [CYP2C8_Y243] | 0.423
SREDIYKRNIE [PDE4DIP_Y45] | 0.5
AMCVRYDGVEV [ADAMTSL2_Y594] | 0.7
ARTNEYKIIRT [INA_Y87] | 0.455
FSLPAFMDRRD [COX4I1_Y38_Y38F] | 0.473
FCVDCYKNFVA [FHL1_Y213_YF] | 0.57
LFSLGYHQSLW [GANAB_Y396_R400L] | 0.51
LYIDSYEKDVA [PGM1_Y521] | 0.895
FTFDPYSEEDP [IL2RB_Y387_YF] | 0.61
SVTCTCSPALN [TP53_Y126_Y126C] | 0.585
MCDKEYYSVHN [MET_Y1234_Y1230C] | 5.1
SECCKYKTDNP [OSMR_Y689_I691T] | 0.51

The sequences below were run against EPHB1 (UniProt P54762) in the same assay as above.
EPHB1, sequence (P54762 whole entry, looked up): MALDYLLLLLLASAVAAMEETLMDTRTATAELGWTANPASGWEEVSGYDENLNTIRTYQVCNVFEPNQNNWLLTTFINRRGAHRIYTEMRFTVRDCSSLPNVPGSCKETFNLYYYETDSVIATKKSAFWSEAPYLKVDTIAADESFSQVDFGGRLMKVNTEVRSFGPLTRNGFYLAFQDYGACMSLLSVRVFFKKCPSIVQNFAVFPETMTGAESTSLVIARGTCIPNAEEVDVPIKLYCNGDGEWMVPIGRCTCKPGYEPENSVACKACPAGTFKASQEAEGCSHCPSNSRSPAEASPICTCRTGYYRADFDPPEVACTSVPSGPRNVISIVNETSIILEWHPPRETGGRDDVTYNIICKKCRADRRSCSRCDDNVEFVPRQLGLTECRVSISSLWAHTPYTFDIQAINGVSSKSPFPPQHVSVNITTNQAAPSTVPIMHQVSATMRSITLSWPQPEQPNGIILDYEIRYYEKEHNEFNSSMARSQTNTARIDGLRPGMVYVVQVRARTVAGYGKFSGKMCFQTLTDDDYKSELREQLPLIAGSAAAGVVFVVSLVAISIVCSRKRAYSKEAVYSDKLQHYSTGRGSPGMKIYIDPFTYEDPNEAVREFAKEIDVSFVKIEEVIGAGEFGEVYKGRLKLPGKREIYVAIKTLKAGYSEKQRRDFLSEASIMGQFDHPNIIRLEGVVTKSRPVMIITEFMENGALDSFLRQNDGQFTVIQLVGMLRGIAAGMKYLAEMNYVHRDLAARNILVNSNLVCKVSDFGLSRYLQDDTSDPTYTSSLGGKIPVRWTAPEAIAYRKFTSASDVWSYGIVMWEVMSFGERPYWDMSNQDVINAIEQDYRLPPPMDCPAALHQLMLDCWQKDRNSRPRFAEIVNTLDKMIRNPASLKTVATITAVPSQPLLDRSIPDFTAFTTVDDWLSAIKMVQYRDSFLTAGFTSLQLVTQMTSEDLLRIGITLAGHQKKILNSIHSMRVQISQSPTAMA

Sequence | phosphorylation enrichment
SGIYQYIIAKF [FOXL2_Y83] | 10.6
CSDPSYVKQME [CDC5L_Y464_Y459C] | 0.703
IIGNGYFFHVF [MYBPC3_Y1135_R1138H_YF] | 0.569
MGGSVYFSFPD [HIKESHI_Y55_YF] | 1.09
NFRRGYHLQVL [CD200R1L_Y138_H135R] | 0.379
CTTIHHNFMCN [TP53_Y234_Y234H_YF] | 0.482
IFETDYFRKGG [INSR_Y1189_YF] | 0.568
WISNRYPDFSS [PRPH2_Y184_L185P] | 0.434
GSRGKCSSGFR [ATM_Y332_Y332C] | 0.41
RVQKRYILDNV [RCN1_Y115_F117L] | 0.176
SETSRYLSDLF [KCNJ3_Y67] | 0.726
YPIDHYLGKEM [G6PD_Y202_R198P] | 0.405
LEQDEYALHSH [HADHB_Y244_R247H] | 0.882
SSQAHYRLSAF [ADAMTS9_Y100] | 0.452
QSSALYEDCYL [ASS1_Y83_R86C] | 12.4
GRPLSYWLTGC [LYZL6_Y140_F139S] | 0.686
INSLKYAYNIS [EIF2B5_Y583] | 0.403

Sequence | phosphorylation enrichment
VHNLDYFKMTT [FGFR3_Y647_K650M_YF] | 0.456
DLDPNYVVSSR [CKM_Y125_L127V] | 0.561
YTGDIYSNSNL [LZTR1_Y141] | 1.19
DPADRYLIEQC [CDKL5_Y286_T288I] | 0.626
ALTRSYIREKV [CYP2C8_Y243] | 0.388
SREDIYKRNIE [PDE4DIP_Y45] | 0.422
AMCVRYDGVEV [ADAMTSL2_Y594] | 0.764
ARTNEYKIIRT [INA_Y87] | 0.468
FSLPAFMDRRD [COX4I1_Y38_Y38F] | 0.396
FCVDCYKNFVA [FHL1_Y213_YF] | 0.533
LFSLGYHQSLW [GANAB_Y396_R400L] | 0.627
LYIDSYEKDVA [PGM1_Y521] | 0.816
FTFDPYSEEDP [IL2RB_Y387_YF] | 0.694
SVTCTCSPALN [TP53_Y126_Y126C] | 0.704
MCDKEYYSVHN [MET_Y1234_Y1230C] | 0.625
SECCKYKTDNP [OSMR_Y689_I691T] | 0.472

Each sequence was assayed on c-Abl (mouse) in the same assay as above.

Sequence | phosphorylation enrichment
SGIYQYIIAKF [FOXL2_Y83] | 6.06
CSDPSYVKQME [CDC5L_Y464_Y459C] | 0.849
IIGNGYFFHVF [MYBPC3_Y1135_R1138H_YF] | 0.776
MGGSVYFSFPD [HIKESHI_Y55_YF] | 1.12
NFRRGYHLQVL [CD200R1L_Y138_H135R] | 0.486
CTTIHHNFMCN [TP53_Y234_Y234H_YF] | 0.478
IFETDYFRKGG [INSR_Y1189_YF] | 0.741
WISNRYPDFSS [PRPH2_Y184_L185P] | 0.66
GSRGKCSSGFR [ATM_Y332_Y332C] | 0.709
RVQKRYILDNV [RCN1_Y115_F117L] | 0.384
SETSRYLSDLF [KCNJ3_Y67] | 0.844
YPIDHYLGKEM [G6PD_Y202_R198P] | 0.584
LEQDEYALHSH [HADHB_Y244_R247H] | 1.1
SSQAHYRLSAF [ADAMTS9_Y100] | 0.481
QSSALYEDCYL [ASS1_Y83_R86C] | 1.35
GRPLSYWLTGC [LYZL6_Y140_F139S] | 0.846
INSLKYAYNIS [EIF2B5_Y583] | 0.421

Sequence | phosphorylation enrichment
VHNLDYFKMTT [FGFR3_Y647_K650M_YF] | 0.521
DLDPNYVVSSR [CKM_Y125_L127V] | 0.713
YTGDIYSNSNL [LZTR1_Y141] | 0.911
DPADRYLIEQC [CDKL5_Y286_T288I] | 0.903
ALTRSYIREKV [CYP2C8_Y243] | 0.417
SREDIYKRNIE [PDE4DIP_Y45] | 0.654
AMCVRYDGVEV [ADAMTSL2_Y594] | 0.817
ARTNEYKIIRT [INA_Y87] | 0.843
FSLPAFMDRRD [COX4I1_Y38_Y38F] | 0.497
FCVDCYKNFVA [FHL1_Y213_YF] | 0.776
LFSLGYHQSLW [GANAB_Y396_R400L] | 0.666
LYIDSYEKDVA [PGM1_Y521] | 0.45
FTFDPYSEEDP [IL2RB_Y387_YF] | 0.772
SVTCTCSPALN [TP53_Y126_Y126C] | 0.907
MCDKEYYSVHN [MET_Y1234_Y1230C] | 0.566
SECCKYKTDNP [OSMR_Y689_I691T] | 0.587

These sequences were tested on AncSZ in the same assay as above.

Sequence | phosphorylation enrichment
SGIYQYIIAKF [FOXL2_Y83] | 1.15
CSDPSYVKQME [CDC5L_Y464_Y459C] | 1.22
IIGNGYFFHVF [MYBPC3_Y1135_R1138H_YF] | 1.11
MGGSVYFSFPD [HIKESHI_Y55_YF] | 1.55
NFRRGYHLQVL [CD200R1L_Y138_H135R] | 0.621
CTTIHHNFMCN [TP53_Y234_Y234H_YF] | 0.713
IFETDYFRKGG [INSR_Y1189_YF] | 0.988
WISNRYPDFSS [PRPH2_Y184_L185P] | 0.798
GSRGKCSSGFR [ATM_Y332_Y332C] | 0.471
RVQKRYILDNV [RCN1_Y115_F117L] | 0.494
SETSRYLSDLF [KCNJ3_Y67] | 0.963
YPIDHYLGKEM [G6PD_Y202_R198P] | 0.771
LEQDEYALHSH [HADHB_Y244_R247H] | 1.45
SSQAHYRLSAF [ADAMTS9_Y100] | 0.65
QSSALYEDCYL [ASS1_Y83_R86C] | 1.82
GRPLSYWLTGC [LYZL6_Y140_F139S] | 1.12
INSLKYAYNIS [EIF2B5_Y583] | 0.476

Sequence | phosphorylation enrichment
VHNLDYFKMTT [FGFR3_Y647_K650M_YF] | 1.06
DLDPNYVVSSR [CKM_Y125_L127V] | 1.17
YTGDIYSNSNL [LZTR1_Y141] | 0.954
DPADRYLIEQC [CDKL5_Y286_T288I] | 1.19
ALTRSYIREKV [CYP2C8_Y243] | 0.524
SREDIYKRNIE [PDE4DIP_Y45] | 0.659
AMCVRYDGVEV [ADAMTSL2_Y594] | 1.19
ARTNEYKIIRT [INA_Y87] | 0.525
FSLPAFMDRRD [COX4I1_Y38_Y38F] | 0.947
FCVDCYKNFVA [FHL1_Y213_YF] | 0.862
LFSLGYHQSLW [GANAB_Y396_R400L] | 0.827
LYIDSYEKDVA [PGM1_Y521] | 1.81
FTFDPYSEEDP [IL2RB_Y387_YF] | 1.08
SVTCTCSPALN [TP53_Y126_Y126C] | 1.16
MCDKEYYSVHN [MET_Y1234_Y1230C] | 1.79
SECCKYKTDNP [OSMR_Y689_I691T] | 0.66
